From patent US20220175942A1 come the findings set out here.

Broadly, the pKd is the Kd on a negative log10 scale, so that one unit is a factor of ten.

Experiment in all cases: -; previously described evasin
The target in assay [1] is CCL3L1_HUMAN.
The target in assay [2] is CXCL1_HUMAN.
Assay [3] deals with CCL14_HUMAN.
Assay [4] deals with CCL16_HUMAN.
In assay [5] the target is CCL21_HUMAN.
Assay [6] concerns the target CCL23_HUMAN.
The target of assay [7] is CCL24_HUMAN.
In assay [8] the target is CCL26_HUMAN.
For assay [9], the target named is CCL7_HUMAN.

pKd: −log10 of the molar value.

EVASIN1 showed a pKd in assay [1] of 10.30.
Regarding EVASIN3, in assay [2], the pKd was 9.07.
As for EVASIN4, the pKd is 9.85 in assay [3]; 9.59 in [4]; 11.00 in assay [5]; 8.35 in assay [6]; 9.39 in assay [7]; 9.06 in [8]. Moreover, in assay [9], the pKd was 9.15.
